Reference: patent US20190338009A1 (ZEALAND PHARMA A S, published 2019)
Square brackets hold non-standard residues; d marks the D form. Aib = CC(C)(N)C(=O)O

What was measured:
[1] = target: human glucagon-like peptide 1 receptor (GLP-1R) (human, UniProt P43220 24-463); assay: cell-based or functional assay
[2] = target: T1, human GLP-2 receptor (hGLP2-R) (human, UniProt O95838 1-553); assay: cell-based or functional assay
T1 sequence (looked up): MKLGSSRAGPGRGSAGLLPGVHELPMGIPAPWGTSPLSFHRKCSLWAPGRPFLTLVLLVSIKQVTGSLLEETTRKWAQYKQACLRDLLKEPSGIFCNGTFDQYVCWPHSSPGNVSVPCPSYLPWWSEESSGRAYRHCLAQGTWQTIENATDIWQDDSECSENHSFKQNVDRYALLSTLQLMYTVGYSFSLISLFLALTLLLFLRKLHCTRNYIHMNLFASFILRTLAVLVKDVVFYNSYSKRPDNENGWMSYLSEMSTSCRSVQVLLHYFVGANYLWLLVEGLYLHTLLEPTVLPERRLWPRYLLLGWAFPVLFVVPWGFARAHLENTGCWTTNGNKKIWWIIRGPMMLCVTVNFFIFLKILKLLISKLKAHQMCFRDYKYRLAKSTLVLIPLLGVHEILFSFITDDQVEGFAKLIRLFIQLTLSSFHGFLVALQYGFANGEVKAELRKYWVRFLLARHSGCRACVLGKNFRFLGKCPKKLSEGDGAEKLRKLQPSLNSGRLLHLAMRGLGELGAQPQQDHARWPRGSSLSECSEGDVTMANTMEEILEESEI

HGDGSFSDEMNTILDNLAARDFINWLIQTKITD [Teduglutide]
EC50 GLP-1 (nM); cAMP AlphaScreen, HEK293 cells expressing human GLP-1R [1]: 39 nM

B1: Compound 3 (peptide)
peptide: H-H[Aib]EGTFTSELATILDEQAARDFIAWLIAHKITD-OH
SMILES: CC[C@H](C)[C@H](NC(=O)[C@H](CC(C)C)NC(=O)[C@H](Cc1c[nH]c2ccccc12)NC(=O)[C@H](C)NC(=O)[C@@H](NC(=O)[C@H](Cc1ccccc1)NC(=O)[C@H](CC(=O)O)NC(=O)[C@H](CCCNC(=N)N)NC(=O)[C@H](C)NC(=O)[C@H](C)NC(=O)[C@H](CCC(N)=O)NC(=O)[C@H](CCC(=O)O)NC(=O)[C@H](CC(=O)O)NC(=O)[C@H](CC(C)C)NC(=O)[C@@H](NC(=O)[C@@H](NC(=O)[C@H](C)NC(=O)[C@H](CC(C)C)NC(=O)[C@H](CCC(=O)O)NC(=O)[C@H](CO)NC(=O)[C@@H](NC(=O)[C@H](Cc1ccccc1)NC(=O)[C@@H](NC(=O)CNC(=O)[C@H](CCC(=O)O)NC(=O)C(C)(C)NC(=O)[C@@H](N)Cc1c[nH]cn1)[C@@H](C)O)[C@@H](C)O)[C@@H](C)O)[C@@H](C)CC)[C@@H](C)CC)C(=O)N[C@@H](C)C(=O)N[C@@H](Cc1c[nH]cn1)C(=O)N[C@@H](CCCCN)C(=O)N[C@H](C(=O)N[C@H](C(=O)N[C@@H](CC(=O)O)C(=O)O)[C@@H](C)O)[C@@H](C)CC
EC50 GLP-1 (nM); cAMP AlphaScreen, HEK293 cells expressing human GLP-1R [1]: 0.0074 nM | EC50 GLP-2 (nM); cAMP AlphaScreen, HEK293 cells expressing human GLP-2R [2]: 0.036 nM

B2: Compound 7 (peptide)
peptide: H-H[Aib]EGSFTSELATILDEQAARDFIAWLIYHKITD-OH
SMILES: CC[C@H](C)[C@H](NC(=O)[C@H](Cc1ccccc1)NC(=O)[C@H](CC(=O)O)NC(=O)[C@H](CCCNC(=N)N)NC(=O)[C@H](C)NC(=O)[C@H](C)NC(=O)[C@H](CCC(N)=O)NC(=O)[C@H](CCC(=O)O)NC(=O)[C@H](CC(=O)O)NC(=O)[C@H](CC(C)C)NC(=O)[C@@H](NC(=O)[C@@H](NC(=O)[C@H](C)NC(=O)[C@H](CC(C)C)NC(=O)[C@H](CCC(=O)O)NC(=O)[C@H](CO)NC(=O)[C@@H](NC(=O)[C@H](Cc1ccccc1)NC(=O)[C@H](CO)NC(=O)CNC(=O)[C@H](CCC(=O)O)NC(=O)C(C)(C)NC(=O)[C@@H](N)Cc1c[nH]cn1)[C@@H](C)O)[C@@H](C)O)[C@@H](C)CC)C(=O)N[C@@H](C)C(=O)N[C@@H](Cc1c[nH]c2ccccc12)C(=O)N[C@@H](CC(C)C)C(=O)N[C@H](C(=O)N[C@@H](Cc1ccc(O)cc1)C(=O)N[C@@H](Cc1c[nH]cn1)C(=O)N[C@@H](CCCCN)C(=O)N[C@H](C(=O)N[C@H](C(=O)N[C@@H](CC(=O)O)C(=O)O)[C@@H](C)O)[C@@H](C)CC)[C@@H](C)CC
EC50 GLP-1 (nM); cAMP AlphaScreen, HEK293 cells expressing human GLP-1R [1]: 0.017 nM | EC50 GLP-2 (nM); cAMP AlphaScreen, HEK293 cells expressing human GLP-2R [2]: 0.11 nM

B3: Compound 9 (peptide)
peptide: H-H[Aib]EGTFTDELATILDEQAARDFIAWLIAHKITD-OH
SMILES: CC[C@H](C)[C@H](NC(=O)[C@H](CC(C)C)NC(=O)[C@H](Cc1c[nH]c2ccccc12)NC(=O)[C@H](C)NC(=O)[C@@H](NC(=O)[C@H](Cc1ccccc1)NC(=O)[C@H](CC(=O)O)NC(=O)[C@H](CCCNC(=N)N)NC(=O)[C@H](C)NC(=O)[C@H](C)NC(=O)[C@H](CCC(N)=O)NC(=O)[C@H](CCC(=O)O)NC(=O)[C@H](CC(=O)O)NC(=O)[C@H](CC(C)C)NC(=O)[C@@H](NC(=O)[C@@H](NC(=O)[C@H](C)NC(=O)[C@H](CC(C)C)NC(=O)[C@H](CCC(=O)O)NC(=O)[C@H](CC(=O)O)NC(=O)[C@@H](NC(=O)[C@H](Cc1ccccc1)NC(=O)[C@@H](NC(=O)CNC(=O)[C@H](CCC(=O)O)NC(=O)C(C)(C)NC(=O)[C@@H](N)Cc1c[nH]cn1)[C@@H](C)O)[C@@H](C)O)[C@@H](C)O)[C@@H](C)CC)[C@@H](C)CC)C(=O)N[C@@H](C)C(=O)N[C@@H](Cc1c[nH]cn1)C(=O)N[C@@H](CCCCN)C(=O)N[C@H](C(=O)N[C@H](C(=O)N[C@@H](CC(=O)O)C(=O)O)[C@@H](C)O)[C@@H](C)CC
EC50 GLP-1 (nM); cAMP AlphaScreen, HEK293 cells expressing human GLP-1R [1]: 0.007 nM | EC50 GLP-2 (nM); cAMP AlphaScreen, HEK293 cells expressing human GLP-2R [2]: 0.041 nM

B4: Compound 5 (peptide)
peptide: H-H[Aib]EGTFTSELATILDEQAARDFIAWLIEHKITD-OH
SMILES: CC[C@H](C)[C@H](NC(=O)[C@H](Cc1ccccc1)NC(=O)[C@H](CC(=O)O)NC(=O)[C@H](CCCNC(=N)N)NC(=O)[C@H](C)NC(=O)[C@H](C)NC(=O)[C@H](CCC(N)=O)NC(=O)[C@H](CCC(=O)O)NC(=O)[C@H](CC(=O)O)NC(=O)[C@H](CC(C)C)NC(=O)[C@@H](NC(=O)[C@@H](NC(=O)[C@H](C)NC(=O)[C@H](CC(C)C)NC(=O)[C@H](CCC(=O)O)NC(=O)[C@H](CO)NC(=O)[C@@H](NC(=O)[C@H](Cc1ccccc1)NC(=O)[C@@H](NC(=O)CNC(=O)[C@H](CCC(=O)O)NC(=O)C(C)(C)NC(=O)[C@@H](N)Cc1c[nH]cn1)[C@@H](C)O)[C@@H](C)O)[C@@H](C)O)[C@@H](C)CC)C(=O)N[C@@H](C)C(=O)N[C@@H](Cc1c[nH]c2ccccc12)C(=O)N[C@@H](CC(C)C)C(=O)N[C@H](C(=O)N[C@@H](CCC(=O)O)C(=O)N[C@@H](Cc1c[nH]cn1)C(=O)N[C@@H](CCCCN)C(=O)N[C@H](C(=O)N[C@H](C(=O)N[C@@H](CC(=O)O)C(=O)O)[C@@H](C)O)[C@@H](C)CC)[C@@H](C)CC
EC50 GLP-1 (nM); cAMP AlphaScreen, HEK293 cells expressing human GLP-1R [1]: 0.0098 nM | EC50 GLP-2 (nM); cAMP AlphaScreen, HEK293 cells expressing human GLP-2R [2]: 0.067 nM

B5: Compound 4 (peptide)
peptide: H-H[Aib]EGSFTSELATILDEQAARDFIAWLIEHKITD-OH
SMILES: CC[C@H](C)[C@H](NC(=O)[C@H](Cc1ccccc1)NC(=O)[C@H](CC(=O)O)NC(=O)[C@H](CCCNC(=N)N)NC(=O)[C@H](C)NC(=O)[C@H](C)NC(=O)[C@H](CCC(N)=O)NC(=O)[C@H](CCC(=O)O)NC(=O)[C@H](CC(=O)O)NC(=O)[C@H](CC(C)C)NC(=O)[C@@H](NC(=O)[C@@H](NC(=O)[C@H](C)NC(=O)[C@H](CC(C)C)NC(=O)[C@H](CCC(=O)O)NC(=O)[C@H](CO)NC(=O)[C@@H](NC(=O)[C@H](Cc1ccccc1)NC(=O)[C@H](CO)NC(=O)CNC(=O)[C@H](CCC(=O)O)NC(=O)C(C)(C)NC(=O)[C@@H](N)Cc1c[nH]cn1)[C@@H](C)O)[C@@H](C)O)[C@@H](C)CC)C(=O)N[C@@H](C)C(=O)N[C@@H](Cc1c[nH]c2ccccc12)C(=O)N[C@@H](CC(C)C)C(=O)N[C@H](C(=O)N[C@@H](CCC(=O)O)C(=O)N[C@@H](Cc1c[nH]cn1)C(=O)N[C@@H](CCCCN)C(=O)N[C@H](C(=O)N[C@H](C(=O)N[C@@H](CC(=O)O)C(=O)O)[C@@H](C)O)[C@@H](C)CC)[C@@H](C)CC
EC50 GLP-1 (nM); cAMP AlphaScreen, HEK293 cells expressing human GLP-1R [1]: 0.015 nM | EC50 GLP-2 (nM); cAMP AlphaScreen, HEK293 cells expressing human GLP-2R [2]: 0.044 nM

B6: Compound 6 (peptide)
peptide: H-H[Aib]EGSFTSELATILDEQAARDFIAWLIHHKITD-OH
SMILES: CC[C@H](C)[C@H](NC(=O)[C@H](Cc1ccccc1)NC(=O)[C@H](CC(=O)O)NC(=O)[C@H](CCCNC(=N)N)NC(=O)[C@H](C)NC(=O)[C@H](C)NC(=O)[C@H](CCC(N)=O)NC(=O)[C@H](CCC(=O)O)NC(=O)[C@H](CC(=O)O)NC(=O)[C@H](CC(C)C)NC(=O)[C@@H](NC(=O)[C@@H](NC(=O)[C@H](C)NC(=O)[C@H](CC(C)C)NC(=O)[C@H](CCC(=O)O)NC(=O)[C@H](CO)NC(=O)[C@@H](NC(=O)[C@H](Cc1ccccc1)NC(=O)[C@H](CO)NC(=O)CNC(=O)[C@H](CCC(=O)O)NC(=O)C(C)(C)NC(=O)[C@@H](N)Cc1c[nH]cn1)[C@@H](C)O)[C@@H](C)O)[C@@H](C)CC)C(=O)N[C@@H](C)C(=O)N[C@@H](Cc1c[nH]c2ccccc12)C(=O)N[C@@H](CC(C)C)C(=O)N[C@H](C(=O)N[C@@H](Cc1c[nH]cn1)C(=O)N[C@@H](Cc1c[nH]cn1)C(=O)N[C@@H](CCCCN)C(=O)N[C@H](C(=O)N[C@H](C(=O)N[C@@H](CC(=O)O)C(=O)O)[C@@H](C)O)[C@@H](C)CC)[C@@H](C)CC
EC50 GLP-1 (nM); cAMP AlphaScreen, HEK293 cells expressing human GLP-1R [1]: 0.014 nM | EC50 GLP-2 (nM); cAMP AlphaScreen, HEK293 cells expressing human GLP-2R [2]: 0.047 nM

B7: Compound 8 (peptide)
peptide: H-H[Aib]EGSFTSELATILDEQAARDFIAWLILHKITD-OH
SMILES: CC[C@H](C)[C@H](NC(=O)[C@H](Cc1ccccc1)NC(=O)[C@H](CC(=O)O)NC(=O)[C@H](CCCNC(=N)N)NC(=O)[C@H](C)NC(=O)[C@H](C)NC(=O)[C@H](CCC(N)=O)NC(=O)[C@H](CCC(=O)O)NC(=O)[C@H](CC(=O)O)NC(=O)[C@H](CC(C)C)NC(=O)[C@@H](NC(=O)[C@@H](NC(=O)[C@H](C)NC(=O)[C@H](CC(C)C)NC(=O)[C@H](CCC(=O)O)NC(=O)[C@H](CO)NC(=O)[C@@H](NC(=O)[C@H](Cc1ccccc1)NC(=O)[C@H](CO)NC(=O)CNC(=O)[C@H](CCC(=O)O)NC(=O)C(C)(C)NC(=O)[C@@H](N)Cc1c[nH]cn1)[C@@H](C)O)[C@@H](C)O)[C@@H](C)CC)C(=O)N[C@@H](C)C(=O)N[C@@H](Cc1c[nH]c2ccccc12)C(=O)N[C@@H](CC(C)C)C(=O)N[C@H](C(=O)N[C@@H](CC(C)C)C(=O)N[C@@H](Cc1c[nH]cn1)C(=O)N[C@@H](CCCCN)C(=O)N[C@H](C(=O)N[C@H](C(=O)N[C@@H](CC(=O)O)C(=O)O)[C@@H](C)O)[C@@H](C)CC)[C@@H](C)CC
EC50 GLP-1 (nM); cAMP AlphaScreen, HEK293 cells expressing human GLP-1R [1]: 0.021 nM | EC50 GLP-2 (nM); cAMP AlphaScreen, HEK293 cells expressing human GLP-2R [2]: 0.084 nM
